Laboratory results from PMC9706017, “Crystal Structure and Molecular Mechanism of Phosphotransbutyrylase from Clostridium acetobutylicum” (Journal of Microbiology and Biotechnology, 2021).

Molecular target: the molecule itself
Assay: crystal structure; apo CaPTB with sulfate ions; crystals from 20% PEG3350, 0.2 M lithium sulfate, 0.1 M HEPES pH 7.5, 20°C; space group P21; 2.9 Å; eight molecules in the asymmetric unit

B1: phosphotransbutyrylase from Clostridium acetobutylicum (enzyme, UniProt P58255 1-301, looked up)
chain: MIKSFNEIIMKVKSKEMKKVAVAVAQDEPVLEAVRDAKKNGIADAILVGDHDEIVSIALKIGMDVNDFEIVNEPNVKKAALKAVELVSTGKADMVMKGLVNTATFLRSVLNKEVGLRTGKTMSHVAVFETEKFDRLLFLTDVAFNTYPELKEKIDIVNNSVKVAHAIGIENPKVAPICAVEVINPKMPSTLDAAMLSKMSDRGQIKGCVVDGPLALDIALSEEAAHHKGVTGEVAGKADIFLMPNIETGNVMYKTLTYTTDSKNGGILVGTSAPVVLTSRADSHETKMNSIALAALVAGNK
notes: phosphotransbutyrylase (phosphate butyryltransferase, PTB) of Clostridium acetobutylicum; Octamer (four dimers) in the crystal and by size-exclusion chromatography; Removal of the tag is not mentioned; also called CaPTB; PTB; source: E. coli BL21(DE3)-T1R, purified (Ni-NTA agarose, Superdex200 size exclusion)
  stoichiometry N: 8
